Assay results: the RNAGym collection of RNA variant scans (doi:10.1073/pnas.2313332121)

B1: TPR t1 (parent)
chain: GACCAAUCUGCCCUCAGAGCUCGAGAACAUCUUCGGAUGCAGAGGAGGCAGGCUUCGGUGGCGCGAUAGCGCCAACGUCCUCAACCUCCAAUGCAUCCCACCACAUGAUGAUGCCUGAAGAGCCUUGGUUUUUUG

Variants of: B1
Experiment: polymerase ribozyme fitness, log enrichment relative to wild type (log ratio); higher = more active; in vitro selection for triplet polymerase activity
Procedure, shortened: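 Libraries of mutants in each subunit of a heterodimeric triplet polymerase ribozyme were generated by PCR and transcribed. In triplicate, each went through one in vitro selection round: annealing with biotinylated primer, partner subunit and triplets; frozen incubation at −7 °C; gel excision of extended constructs; streptavidin-bead capture; RT-PCR. Fitness, taken from Illumina sequencing of input and output libraries, is the logarithm of a genotype's enrichment over wild-type enrichment, averaged across replicates with inverse-variance weights. The logarithm is base 2, and genotypes needed ≥10 input reads and ≥1 read per output to be kept.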

Variant	polymerase ribozyme fitness (log ratio)
G10A G61U G122A	0.738
C11G A18U C72A A91U G110C	-5.23
C11G G36A	0.396
G10A G47A A68G U109C C123G	-6.84
C11G C28U	-2.03
G10U A46C	-0.286
C11A C62U C94A	-2.43
C11A G52A C73G	-2.98
G10A G93U C102A	-3.7
C11G C73A	0.279
C11G C70U	0.101
C11G C56G U106G	-0.581
C11G A50U G93U G113U	-4.55
C11G G42A U59A A91C C94A A95G A118G	-4.19
G10U C53G U78A	-2.99
G10U A18U C70U	-4.05
G10U C13U G61U	-0.215
G10U A27U C76G U109G	-5.77
G10C C73A	-1.86
G10C C114U	-2.38
C11G C82G G117C	-2.58
C11A G107A	-5.12
C11G G44C A66G A83G C114A U133A	-5.39
C11G G42C A68U C72A A91U G113C	-8.47

Variant	polymerase ribozyme fitness (log ratio)
G10A G63U C86U G120A	0.0567
G10C G61A G93C	-1.11
C11G G39A C124A	1.48
G10A G36C A50G U92G	-3.51
G10A G45A A95C C102A	-2.76
G10U G69A	-3.09
G10U A37C G113U U129A	-5.04
G10A G107A C123U C124A	-4.28
G10U C53A G77C U78A G107C A121U	-4.29
C11A G77A C82G	-1.88
C11G C88G G93C	-3.14
G10A G52A G60A C79A	-1.36
C11G G47U G63A C79A	-3.91
C11A G42A C86U U96A	-4.6
C11G C12A G51A C80A U116G	-5.92
G10U U14G U116C	-1.69
G10A U32C C72G U87A U131A	-2.99
G10U C49U G57A U106C	-2.46
C11G G19C C73G	-3.75
C11G G77U C80U G113U	-3.12
C11G G17U A50U G71U C85A U87C	-5.37
G10C C56U G117C	-4.57
C11A G77U U87G U106G G113C U125G	-4.71
C11G C115U	-1.01

Variant	polymerase ribozyme fitness (log ratio)
C11G G52A C99U U106G	-4.99
C11G A16G G60A C64U G110A A118G	-6.79
C11G C12A C64U U96C A108G	-2.32
G10U C56A U59C U112A	-0.649
G10C C13G G61A U106G A118U	-2.68
G10U A16C G44C C70U A111C U125G	-7.14
C11A A41C G58A U96A	-3.23
G10C G71A G113C	-4.81
C11A U132A	-2.12
C11G A68U	-4.49
C11G C40A G122A G127U	-1.57
C11G C53G U96G A105C U112G	-5.28
G10C G39A C56G G113U A118U	-4.76
G10A G44A G47A G61C	-3.22
G10U G39A C98U	-1.4
G10U G17A	-3.07
G10U U112G	0.352
C11G C40A C76G C86U C114U U125C	-5.11
G10U G113U	-2.76
C11G G61U C86A U106G C114U	-4.18
C11G A68G U81A U106A G110A G113U A121G	-6.2
C11G A16U G93U A100C C123U	-3.13
G10C C15A	-2.21
C11G G42C C49U G117C C124G	-4.14

Variant	polymerase ribozyme fitness (log ratio)
C11A G60C	-1.7
G10U C12A G71U U78A C80U C114G	-3.23
G10U U106A	0.263
C11A C12U G71U A84C	-1.73
G10C C13A C64U C82U A83C	-1.29
G10U C22G A46G C76A A118U	-4.37
G10C G113C	-2.27
G10U G63A U112A	-0.981
G10U C76A	-1.51
G10C C49G C64U A83G U125A	-3.57
G10C C85U	-1.64
G10A C73U U116C	-1.59
G10C C13A C40A G42U G52U C72A	-5.16
C11G G17U G61A A105G	-6.42
G10U C13U G60C G107A U112C G127U	-4.55
C11A G45A G61A	-1.68
G10U G17A C56A C89G G117A	-3.05
C11G C31A A41U C70G G113U	-5.92
G10U A26U G39C C89U	-5.19
C11A C73A U81C U125A	-3.38
G10A C56U U96C	-0.627
G10C A26G G71A	-2.61
G10A C70U A121U	1.19
G10C G25C C31G C89A C114U	-7.2

Variant	polymerase ribozyme fitness (log ratio)
C11G G19A G47C G48A	-3.86
C11G A43G U59A	-1.75
G10U C22U G47A G63C U96A C123A	-5.69
G10U C40A C64U U81C	-2.46
C11A A18U G127A	-4.94
C11A A37C U54C	-2.16
C11A C53G G57A C123G	-1.45
C11G C12A G69C C104A	-2.8
C11A G36U G77C	-3.38
G10C A43U U129C	-3.15
G10U A83U	-0.308
G10U U87A U92C A121G U132C	1.22
G10U G57A G60A	-0.571
G10U U78C C88G	-1.13
C11A C49G G63C C79A	-6.2
C11A G52C U54C C94U G120C	0.0193
C11G G51C	-4.46
C11G C64U	-0.506
C11A U116G	-4.36
G10A C97U	-0.852
G10U G71A A103U C114U	-4.96
C11G C34U C49A C123U	-2.86
C11G C80U	-0.0495
G10U G71C	-1.29

Variant	polymerase ribozyme fitness (log ratio)
G10A U33G	-4.61
C11G C40U G47C C56A U92A	-6.34
C11A C49G U129C	-2.01
C11G A74U C76A U78A C80U G93U G135C	-3.08
G10U C82G G117C	-4.93
G10U C11U	0.0495
G10C U112A	0.23
C11G C73A C82U	-0.161
C11G G47U C56U U112C G122A	-0.322
C11G G52A C56A	-0.203
C11G C13G A50C G110C	-5.28
C11G C97A C102U	-4.77
G10C C11G A103U	-3.76
C11G G61C U78C U126A	-4.7
C11G C56G C79U	-0.259
G10C C11U C13A A37U C70U	-0.31
G10U C15U C56A C72G G120A	-0.935
C11G G52A U54A C98A	-5.44
C11G C34U A84C	-3.61
G10U C40U A41G A46C C64U	-5.98
C11G A84U	-0.202
C11G C85G	-1.55
C11A G48U G69U A103C	-3.74
C11A U33G G69U U106A	-2.62

Variant	polymerase ribozyme fitness (log ratio)
C11G A37U G42U	-0.864
C11A G44U C56U	-2.23
G10C G42U G48A	-2.39
C11G A16U G58C A83C C89U U131A	-3.15
G10C U38C C40U C64U C101A	-1.8
C11A C53G G60C G77C C86G	-4.21
G10U A18U C40A C56G	-4.94
C11G A66C	-0.842
C11G G48U G61A C73A A90G	-2.19
C11G C53U G61A G107A	-5.9
C11A C56A U81G A84U C101U C115A G120C U134G	0.0951
C11G G71A U106G	-2.48
G10C A103U C123U	-5.06
C11G G61A C64U G120U	-0.77
C11G C12G G48U G58U G60U C85A U106G	-4.78
G10U C20U U32A A84U C104A	-3.8
C11A C40G G42A G71A	-4.67
C11G C13U C56U G69A G77C C101A	-5.25
C11G G39A G60C	-0.748
C11G G35A	-2.51
G10C U32C G52A U112A G128A	-2.52
G10U A37U	-0.888
G10U G48U G93A C123G	0.384
